Measurements as given in patent US20020147306A1, “Peptides that modulate the interaction of B class ephrins and PDZ domains” (priority 1998, published 2002).

What was measured:
[1] = target: T1, GRIP PDZ6 (Mus musculus, UniProt Q925T6); assay: Fluorescence polarization binding of fluorescent peptide to GST fusion of GRIP PDZ6
T1 construct: separate GST fusions of GRIP PDZ6 and GRIP PDZ7; made in house
T1 sequence (Q925T6 672-754 limits assumed): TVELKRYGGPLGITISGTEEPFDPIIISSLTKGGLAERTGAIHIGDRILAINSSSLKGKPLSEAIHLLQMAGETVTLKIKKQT
Method: (§1) All fluorescence polarization measurements were conducted at 22° C.

[2] = target: T2, GRIP PDZ7 (Mus musculus, UniProt Q925T6); assay: Fluorescence polarization binding of fluorescent peptide to GST fusion of GRIP PDZ7
T2 construct: separate GST fusions of GRIP PDZ6 and GRIP PDZ7; made in house
T2 sequence (Q925T6 1003-1085 limits assumed): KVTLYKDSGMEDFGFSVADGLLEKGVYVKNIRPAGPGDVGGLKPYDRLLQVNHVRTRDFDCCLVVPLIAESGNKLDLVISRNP
Method: as §1

[3] = target: T3, GST-FAP-1 PDZ5 binding to ephrin B1 (Homo sapiens, UniProt Q12923); assay: Peptide competition of GST-FAP-1 PDZ5 binding to ephrin B1 (GST mixing, immunoblot); conditions: peptide 100 μM, lysates of ephrin B1-transfected Cos-1 cells
T3 construct: made in house; ephrin B1: transiently transfected Cos-1 cells (lysate)
T3 sequence (Q12923 1788-1868 limits assumed): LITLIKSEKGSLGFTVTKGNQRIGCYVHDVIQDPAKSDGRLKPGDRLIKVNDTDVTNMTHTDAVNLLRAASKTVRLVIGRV
Method: FIGS. 4A and 4B. FAP-1 PDZ5 and syntenin binding to ephrin B1 can be blocked by addition of peptides corresponding to the C-terminal sequence of B ephrins. Peptides of the indicated sequence were included at a concentration of 100 μM in incubations of GST fusion proteins with lysates of Cos-1 cells transfected with ephrin B1. Associated proteins were separated on a 10% polyacrylamide/SDS gel and analyzed by immunoblotting with antibodies against ephrin B1. FIG. 4A, Competition of FAP-1 PDZ5 binding to ephrin B1 using the indicated peptides. A peptide of sequence DHQpYpYND was added at a concentration of 100 μM as a negative control. Immunoprecipitation of ephrin B1 was included as a positive control. FIG. 4B, Peptide competition of the binding of full-length syntenin to ephrin B1.
Cos-1 cells were maintained in DMEM supplemented with 10% fetal bovine serum (FBS). Transient transfections were performed using Lipofectin reagent and Opti-MEM medium (Life Technologies Inc.) as outlined by the manufacturer. To reduce phosphorylation of ephrin B1 by binding to endogenously expressed EphB receptors or by stimulation with serum growth factors, transfected cells were transferred from 10 cm to 15 cm plates 24 h after transfection and serum starved in DMEM 0.5% FBS 12 h prior to cell lysis. […]

“GNIYYKV [fluorescent B ephrin C-terminal peptide]” was tested. Which “interaction with GST fusion of GRIP PDZ6” value [1] did it give?
The value was “not detected”.

And the “interaction with GST fusion of GRIP PDZ7” value [2]?
Its value is “not detected”.

For DHQpYpYND, which “blocking of GST-FAP-1 PDZ5 binding to ephrin B1” value [3] is on record?
Its value is “did not decrease binding”.
